Test results taken from paper PMC5458255.

Molecular target: CCR7 receptor (human (endogenous in NKL3 and MDA-MB-231)) (UniProt P32248)
UniProt P32248, sequence (P32248 25-378): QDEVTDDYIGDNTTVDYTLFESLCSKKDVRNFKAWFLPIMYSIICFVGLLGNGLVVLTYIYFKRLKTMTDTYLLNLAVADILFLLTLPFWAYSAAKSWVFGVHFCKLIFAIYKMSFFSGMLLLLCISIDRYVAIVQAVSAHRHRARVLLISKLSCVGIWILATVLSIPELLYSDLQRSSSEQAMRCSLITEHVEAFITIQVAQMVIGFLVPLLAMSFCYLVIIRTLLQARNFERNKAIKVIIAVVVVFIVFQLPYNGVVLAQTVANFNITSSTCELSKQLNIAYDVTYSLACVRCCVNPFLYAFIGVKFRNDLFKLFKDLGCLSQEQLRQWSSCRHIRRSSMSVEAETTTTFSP

adhesion under flow of NKL3 cells to HPLNEC.B3 endothelial cells treated with CCL21, hypoxia; total inhibition by anti-CCR7 neutralizing antibodies: 2.5 fold
Substance: recombinant human CCL21 (from UniProt O00585 24-134) (ligand)
